Assay results taken from patent US20140120555A1 (PIERRE FABRE MEDICAMENT, published 2014).
Blank lines part the entries; values can stand above or below the binder they belong to.

What was measured:
[1] = molecular target: T1, chimeric antibody c515H7; experiment: SPR (Biacore X): m-FcγRI injected over c515H7 Mab immobilized on a CM4 sensorchip; Langmuir model
T1 construct: Human IgG1/kappa constant domains; also called c515H7 Mab; chimeric 515H7
Experimental: (§1) 2017 RU of c515H7 Mab were immobilized using the amine coupling kit chemistry on the second flowcell (FC2) of a CM4 sensorchip. The first flowcell (FC1) activated by NHS and EDC mixture and des-activated by ethanolamine served as the reference surface to check and subtract the non specific interaction between the analyte (Fc gamma receptors) and the sensorchip matrix.
(§2) The kinetic experiments were carried out at 25° Celsius at a flow rate of 30 μl/min. The HBS-EP buffer was used either as the running buffer or for the preparation of analyte solutions. The analyte solutions were injected during 90 seconds (association phase) with a 90 seconds delay (dissociation phase). An injection of running buffer as analyte was used as a double reference. All the sensorgrams were corrected by this double reference sensorgram.
(§3) After each injection of the analyte, the sensorchip was regenerated by injection of 20 mM NaOH, 75 mM NaCl solution.

[2] = molecular target: T2, humanized antibody Hz515H7 VH1 D76N VL2; experiment: SPR (Biacore X): m-FcγRI injected over hz515H7VH1D76NVL2 Mab immobilized on a CM4 sensorchip; heterogeneous ligand model, minor component (18%)
T2 construct: IgG1/kappa; also called hz515H7VL2; hz515H7-1
Experimental: as §1, with “1964” for “2017”, “hz515H7VH1D76NVL2” for “c515H7”
as §2
(§4) After each injection of the analyte, the sensorchip was regenerated by injection of either 20 mM NaOH solution after h-FcγRI and m-FcγRIII or 10 mM NaOH after h-FcγRIIIA and m-FcγRI.

[3] = molecular target: T1, chimeric antibody c515H7; experiment: SPR (Biacore X): m-FcγRI injected over c515H7 Mab immobilized on a CM4 sensorchip; heterogeneous ligand model, major component (81%)
Experimental: as §1, §2, §3

[4] = molecular target: T1, chimeric antibody c515H7; experiment: SPR (Biacore X): m-FcγRI injected over c515H7 Mab immobilized on a CM4 sensorchip; heterogeneous ligand model, minor component (19%)
Experimental: as §1, §2, §3

[5] = molecular target: T2, humanized antibody Hz515H7 VH1 D76N VL2; experiment: SPR (Biacore X): m-FcγRI injected over hz515H7VH1D76NVL2 Mab immobilized on a CM4 sensorchip; heterogeneous ligand model, major component (82%)
Experimental: as §1, with “1964” for “2017”, “hz515H7VH1D76NVL2” for “c515H7”
as §2, §4

[6] = molecular target: T2, humanized antibody Hz515H7 VH1 D76N VL2; experiment: SPR (Biacore X): m-FcγRI injected over hz515H7VH1D76NVL2 Mab immobilized on a CM4 sensorchip; Langmuir model
Experimental: as §1, with “1964” for “2017”, “hz515H7VH1D76NVL2” for “c515H7”
as §2, §4

[7] = molecular target: T2, humanized antibody Hz515H7 VH1 D76N VL2; experiment: SPR (Biacore X): m-FcγRIII injected over hz515H7VH1D76NVL2 Mab immobilized on a CM4 sensorchip; heterogeneous ligand model, major component (66%)
[8] = molecular target: T2, humanized antibody Hz515H7 VH1 D76N VL2; experiment: SPR (Biacore X): m-FcγRIII injected over hz515H7VH1D76NVL2 Mab immobilized on a CM4 sensorchip; Langmuir model
Experimental: as §1, with “1964” for “2017”, “hz515H7VH1D76NVL2” for “c515H7”
as §2
Using the Langmuïr model the constant of dissociation was around 17 and 18 nM.

[9] = molecular target: T1, chimeric antibody c515H7; experiment: SPR (Biacore X): m-FcγRIII injected over c515H7 Mab immobilized on a CM4 sensorchip; Langmuir model
Experimental: as §1, §2, §3

[10] = molecular target: T1, chimeric antibody c515H7; experiment: SPR (Biacore X): m-FcγRIII injected over c515H7 Mab immobilized on a CM4 sensorchip; heterogeneous ligand model, minor component (1%)
Experimental: as §1, §2, §3

[11] = molecular target: T2, humanized antibody Hz515H7 VH1 D76N VL2; experiment: SPR (Biacore X): m-FcγRIII injected over hz515H7VH1D76NVL2 Mab immobilized on a CM4 sensorchip; heterogeneous ligand model, minor component (34%)
[12] = molecular target: T1, chimeric antibody c515H7; experiment: SPR (Biacore X): m-FcγRIII injected over c515H7 Mab immobilized on a CM4 sensorchip; heterogeneous ligand model, major component (99%)
Experimental: as §1, §2, §3

[13] = molecular target: T1, chimeric antibody c515H7; experiment: SPR (Biacore X): h-FcγRI injected over c515H7 Mab immobilized on a CM4 sensorchip; Langmuir model
Experimental: as §1, §2, §3

[14] = molecular target: T1, chimeric antibody c515H7; experiment: SPR (Biacore X): h-FcγRI injected over c515H7 Mab immobilized on a CM4 sensorchip; heterogeneous ligand model, major component (100%)
Experimental: as §1, §2, §3

[15] = molecular target: T2, humanized antibody Hz515H7 VH1 D76N VL2; experiment: SPR (Biacore X): h-FcγRI injected over hz515H7VH1D76NVL2 Mab immobilized on a CM4 sensorchip; Langmuir model
Experimental: (§5) The experiments were carried out using a Biacore X device. The soluble forms of the four Fc […]gamma receptors used in this study were purchased from R&D Systems: […]

[16] = molecular target: T1, chimeric antibody c515H7; experiment: SPR (Biacore X): h-FcγRI injected over c515H7 Mab immobilized on a CM4 sensorchip; heterogeneous ligand model, minor component (0%)
Experimental: as §1, §2, §3

[17] = molecular target: T2, humanized antibody Hz515H7 VH1 D76N VL2; experiment: SPR (Biacore X): h-FcγRI injected over hz515H7VH1D76NVL2 Mab immobilized on a CM4 sensorchip; heterogeneous ligand model, minor component (1%)
Experimental: as §5

[18] = molecular target: T2, humanized antibody Hz515H7 VH1 D76N VL2; experiment: SPR (Biacore X): h-FcγRI injected over hz515H7VH1D76NVL2 Mab immobilized on a CM4 sensorchip; heterogeneous ligand model, major component (99%)
Experimental: as §5

T2 sequence (heavy, as listed by the source, chain 1 of 2): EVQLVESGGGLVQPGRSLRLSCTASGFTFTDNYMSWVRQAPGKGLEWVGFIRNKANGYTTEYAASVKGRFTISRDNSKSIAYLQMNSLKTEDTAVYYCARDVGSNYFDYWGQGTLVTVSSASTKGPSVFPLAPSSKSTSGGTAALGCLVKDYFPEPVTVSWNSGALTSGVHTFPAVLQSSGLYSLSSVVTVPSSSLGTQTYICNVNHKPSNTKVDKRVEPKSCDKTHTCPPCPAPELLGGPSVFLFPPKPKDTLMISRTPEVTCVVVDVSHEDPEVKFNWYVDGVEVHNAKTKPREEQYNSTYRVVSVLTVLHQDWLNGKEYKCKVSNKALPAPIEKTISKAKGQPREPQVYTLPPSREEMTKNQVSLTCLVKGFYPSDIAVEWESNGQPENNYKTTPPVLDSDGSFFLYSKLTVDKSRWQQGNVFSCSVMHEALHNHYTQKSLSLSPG
T2 sequence (light, as listed by the source, chain 2 of 2): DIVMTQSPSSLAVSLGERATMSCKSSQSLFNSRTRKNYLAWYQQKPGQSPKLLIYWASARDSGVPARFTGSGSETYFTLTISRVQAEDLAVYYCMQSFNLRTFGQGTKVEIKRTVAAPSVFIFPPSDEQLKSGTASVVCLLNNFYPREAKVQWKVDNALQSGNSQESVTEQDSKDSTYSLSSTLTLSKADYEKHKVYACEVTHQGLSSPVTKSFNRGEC
T1 sequence (heavy, as listed by the source, chain 1 of 2): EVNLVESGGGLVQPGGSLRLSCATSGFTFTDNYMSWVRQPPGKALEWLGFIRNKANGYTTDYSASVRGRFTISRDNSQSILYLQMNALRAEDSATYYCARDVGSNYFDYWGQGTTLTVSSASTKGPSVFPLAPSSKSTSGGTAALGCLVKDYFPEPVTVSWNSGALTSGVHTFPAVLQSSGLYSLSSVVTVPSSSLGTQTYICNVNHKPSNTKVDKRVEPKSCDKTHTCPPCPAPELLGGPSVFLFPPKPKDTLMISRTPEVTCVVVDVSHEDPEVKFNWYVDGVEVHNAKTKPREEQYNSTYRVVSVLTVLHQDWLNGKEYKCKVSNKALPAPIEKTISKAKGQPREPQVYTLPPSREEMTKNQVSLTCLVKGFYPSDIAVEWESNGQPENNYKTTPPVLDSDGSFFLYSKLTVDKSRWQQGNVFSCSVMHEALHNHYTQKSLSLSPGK
T1 sequence (light, as listed by the source, chain 2 of 2): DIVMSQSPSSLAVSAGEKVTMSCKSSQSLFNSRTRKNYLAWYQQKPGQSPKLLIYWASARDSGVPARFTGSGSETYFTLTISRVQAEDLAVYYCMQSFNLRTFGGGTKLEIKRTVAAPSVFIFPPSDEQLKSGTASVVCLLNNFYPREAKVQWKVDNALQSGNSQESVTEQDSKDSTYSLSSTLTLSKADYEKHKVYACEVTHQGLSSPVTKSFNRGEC

- t1/2 [1]: 0.17 min
- t1/2 [2]: 0.53 min
- t1/2 [3]: 0.08 min
- t1/2 [4]: 0.3 min
- t1/2 [5]: 0.11 min
- t1/2 [6]: 0.18 min
B1: Recombinant mouse FcγRI [CD64], Gln25-Pro297 with C-terminal 6-His tag (receptor)
chain: EVVNATKAVITLQPPWVSIFQKENVTLWCEGPHLPGDSSTQWFINGTAVQISTPSYSIPEASFQDSGEYRCQIGSSMPSDPVQLQIHNDWLLLQASRRVLTEGEPLALRCHGWKNKLVYNVVFYRNGKSFQFSSDSEVAILKTNLSHSGIYHCSGTGRHRYTSAGVSITVKELFTTPVLRASVSSPFPEGSLVTLNCETNLLLQRPGLQLHFSFYVGSKILEYRNTSSEYHIARAEREDAGFYWCEVATEDSSVLKRSPELELQVLGPQSSAPHHHHHH
notes: range 25-297; Soluble form bought from R&D Systems; also called m-FcγRI

- t1/2 [7]: 313 min
- t1/2 [8]: 3.17 min
- t1/2 [9]: 2.61 min
- t1/2 [10]: 4.85 min
- t1/2 [11]: 0.39 min
- t1/2 [12]: 2.59 min
B2: Recombinant mouse FcγRIII [CD16], Ala31-Thr215 with C-terminal 10-His tag (receptor)
chain: ALPKAVVKLDPPWIQVLKEDMVTLMCEGTHNPGNSSTQWFHNGRSIRSQVQASYTFKATVNDSGEYRCQMEQTRLSDPVDLGVISDWLLLQTPQRVFLEGETITLRCHSWRNKLLNRISFFHNEKSVRYHHYKSNFSIPKANHSHSGDYYCKGSLGSTQHQSKPVTITVQDPATTSSISLVWYHTHHHHHHHHHH
notes: Soluble form bought from R&D Systems; also called m-FcγRIII

- t1/2 [13]: 19.3 min
- t1/2 [14]: 19.3 min
- t1/2 [15]: 21.4 min
- t1/2 [16]: 158 min
- t1/2 [17]: 578 min
- t1/2 [18]: 28.9 min
B3: Recombinant human FcγRI [CD64], Gln16-Pro288 with C-terminal 6-His tag (receptor)
chain: QVDTTKAVITLQPPWVSVFQEETVTLHCEVLHLPGSSSTQWFLNGTATQTSTPSYRITSASVNDSGEYRCQRGLSGRSDPIQLEIHRGWLLLQVSSRVFTEGEPLALRCHAWKDKLVYNVLYYRNGKAFKFFHWNSNLTILKTNISHNGTYHCSGMGKHRYTSAGISVTVKELFPAPVLNASVTSPLLEGNLVTLSCETKLLLQRPGLQLYFSFYMGSKTLRGRNTSSEYQILTARREDSGLYWCEAATEDGNVLKRSPELELQVLGLQLPTPHHHHHH
notes: range 16-288; Soluble form bought from R&D Systems; also called h-FcγRI
